Target: the molecule itself
Test: crystal structure

B1: mouse RIG-I CARDs (residues 1-189), bacterially expressed (domain or fragment, UniProt Q6Q899 1-189, looked up)
chain: MTAEQRQNLQAFRDYIKKILDPTYILSYMSSWLEDEEVQYIQAEKNNKGPMEAASLFLQYLLKLQSEGWFQAFLDALYHAGYCGLCEAIESWDFQKIEKLEEHRLLLRRLEPEFKATVDPNDILSELSECLINQECEEIRQIRDTKGRMAGAEKMAECLIRSDKENWPKVLQLALEKDNSKFSELWIVD
  stoichiometry N: 4
